Results published in PMC5601406 (2017).

Molecular target: SN (Staphylococcus nuclease scaffold protein) (Staphylococcus aureus, UniProt Q5HHM4)
Test: ELISA

B1: SmpB (protein)
chain: MSKKNSKNKAGSNTIALNRSARHEYFIEEKIEAGLSLQGWEVKSLRAGKANISEAYVIFRDGEAYLFGSSFLPLQAASSHVVCDPTRTRKLLLSRRELDKLESLIARQGYTVVPLALYWKQCWVKVEIGLVKGKKEHDKREDTKAREWDREKARIMKNKHRG
With B1 the Kd was 1380 nM.
